# Data as given in patent publication US10864269B2, “Therapeutic combinations comprising anti-CD73 antibodies and uses thereof” (MedImmune Limited, priority 2014, dated 2020).
# Columns and labels:
# [1] = biological target: T1, surface-expressed CD73, NCI-H322 cells (Homo sapiens, UniProt P21589); assay: Cell-based inhibition of 5′ ectonucleotidase (CD73-catalyzed hydrolysis of AMP); conditions: CD73-expressing NSCLC cells, 200 μM AMP, 24 hours
# T1 construct: In a cell-based assay of surface-expressed CD73; endogenous in cells; host or cells: NCI-H322
# T1 sequence (P21589 27-549): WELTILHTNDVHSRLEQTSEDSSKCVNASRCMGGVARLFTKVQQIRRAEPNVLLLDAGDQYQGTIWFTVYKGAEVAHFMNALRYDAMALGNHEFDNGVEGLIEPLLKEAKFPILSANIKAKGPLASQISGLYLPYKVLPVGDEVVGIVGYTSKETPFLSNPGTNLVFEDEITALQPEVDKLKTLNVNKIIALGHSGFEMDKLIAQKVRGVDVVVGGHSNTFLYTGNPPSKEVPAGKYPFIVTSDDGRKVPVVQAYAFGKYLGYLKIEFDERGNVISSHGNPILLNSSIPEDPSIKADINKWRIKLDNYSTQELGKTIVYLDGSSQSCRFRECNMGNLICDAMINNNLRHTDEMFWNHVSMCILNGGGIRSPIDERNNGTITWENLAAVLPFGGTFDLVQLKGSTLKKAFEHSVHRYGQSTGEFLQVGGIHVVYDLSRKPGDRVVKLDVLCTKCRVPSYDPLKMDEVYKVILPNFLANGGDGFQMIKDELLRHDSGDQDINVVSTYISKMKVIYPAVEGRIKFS
# Protocol: In this study, the functional activity of MEDI9447 was determined in an in vitro assay that measured the CD73-catalyzed hydrolysis of AMP using a human non-small cell carcinoma cell line, NCI-H322. Formulation of MEDI9447 was prepared by diluting its stock solution in serum-free RPMI medium to a final concentration of 1 μM. Formulation of R347 was prepared by diluting its stock solution in RPMI to a final concentration of 1 μM.
# NCI-H322 cells were centrifuged for 5 minutes at 1500 rpm. The supernatant was removed and replaced with serum-free RPMI medium. The cell suspension was counted using the VI-CELL (Beckman, Coulter) cell counter. The cells were plated into 96-well plates at a cell density of 10,000 cells per 100 μLs per well. […], of 4× concentrated AMP (200 μM) was added. […] Cellular enzyme inhibition of 5′ ectonucleotidase was measured on a multilabel reader, the Perkin-Elmer Envision Workstation. The samples were analyzed using Prism Software.
# The results depicted in FIG. 3 were obtained using CD73-expressing NSCLC cells that were plated into 96-well non-tissue culture treated plates (Falcon 3788) at 10,000 cells per well in 100 μL of RPMI medium without additives. […] CELLTITER-GLO® reagent (Promega) was added 1:1 and cellular CD73 enzyme AMP phosphorylase activity was determined by measuring ATP levels using the Envision luminescence plate reader (Perkin Elmer). […]
# [2] = system: 4T1 cells; assay: FabZAP antibody internalization assay, 4T1; format: cell-based, murine; conditions: 4T1, 3 days
# Protocol: Internalization of MEDI9447 into cell lines MDA-MB-231 (human mammary carcinoma) and 4T1 (murine mammary carcinoma) was assessed using a human Antibody Internalization Kit that is sold commercially as the FabZAP assay (Advanced Targeting Systems, San Diego Calif.). Serial dilutions of MEDI9447 or negative control antibody R347 were pre-incubated with 40 nM FabZAP reagent (Fab fragment of a polyclonal anti-human IgG antibody conjugated to the cytotoxic protein saporin) and then added to the cell lines. After 3 days in culture, cell proliferation was measured using a luminescent cell viability assay sold commercially as the CELLTITER-GLO® assay (Promega, Madison Wis.). This assay was used to calculate EC50 values and maximum toxicity. […]
# Cell proliferation of MDA-MB-231 cells and 4T1 cells treated with serial dilutions of test antibody and FabZAP reagent was measured by CELLTITER-GLO® assay (FIG. 2). The signal from the negative control antibody R347 in the CELLTITER-GLO® assay was subtracted from the signal of MEDI9447 and the EC50 value and maximum toxicity were calculated by fitting the dose-response curve using non-linear regression analysis.
# 1,000 cells/well were cultured in 96 well plates in RPMI/10% FBS. […] After 3 days incubation at 37C, the cell proliferation was measured using the CELLTITER-GLO® assay (Promega, Madison Wis.).
# [3] = biological target: T2, human CD73 ECD (Homo sapiens, UniProt P21589); assay: Surface plasmon resonance (ProteOn), human CD73; format: binding; conditions: SPR
# T2 construct: made in house; host or cells: mammalian cells
# T2 sequence (P21589 27-549 limits assumed): T1 sequence (P21589 27-549)
# Protocol: A ProteOn XPR36 instrument was used to characterize binding of MEDI9447 to human, murine, and cynomolgus CD73 ECD. MEDI9447 was affinity-captured using an anti-human Fc antibody. CD73 ECD was in the mobile phase. The association and dissociation of CD73 to MEDI9447 could be accurately described with the Langmuir 1:1 model.
# The affinity of enhanced anti-CD73 antibodies (in IgG1-TM format) to human, murine, and cynomolgus CD73 was determined by flow cytometry and surface plasmon resonsance (SPR) (Table 13). The enhanced antibodies had pM affinity to cellular and recombinant CD73 from the three species.
substance,measurement,setting,value
MEDI9447: IgG1 with CD730010-derived VL of SEQ ID NO: 68 and VH of SEQ ID NO: 82,conversion of adenosine monophosphate to adenosine,[1],reduced in a dose-dependent manner
same,maximum toxicity,[2],97%
same,kd,[3]; Human CD73 ECD,1.06e-05 s⁻¹
same,ka,"[3]; antibody captured, Human CD73 ECD in mobile phase",2.57e+06 M⁻¹ s⁻¹
